Source: the NTF2 design screens of Basanta et al. (2020)

Experiment: protease stability score; higher = more stable; yeast display proteolysis, trypsin and chymotrypsin;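 further: relative to predicted unfolded state with 0 unfolded-like and 1 meaning tenfold more protease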
“EEDRNDVEDFLRMFRTALTTGDEHILEHLADPNTRVDINGKEWHGWHHVSELHKKHLEDLGADHVEFRVHDFRIIGNKVHVDSRLIEHQGDKILIINTIIIQLKINGRWVIHELRFR” showed a protease stability score of 0.988.
With “SEAERDAKELLELIVTTMRTGDEETLNRLMDPHTRLHVNGRDLIGRELMTEFLHEIRIEDSRTRDVRVFNGRLEVEGKLRGDWNGVEREVETRYIVEKVNGRWLLHSVTFE” the protease stability score was 0.413.
For “DEDERVMRTLLELLLRSHNTGDEDSYKQLLDPDTRVHVDGVDFHGMEFARTLARHWRVKHVELKDVRSQGNKIEADIHTVGVINGQELRTETHIITEKVNGRWVLHSISIR”, the protease stability score was 1.46.
With “DEEEKMDELLIKIWLKVNETGDEDTFSKLLDPDAKVIVGDKVLHGREEIEELMRQLRVDRIHVRRHKAVNGQIHQDWELRGTVNGREIRTETRVHTIKVNGQWVIHRLKIE” the protease stability score was 1.49.
Sequence “DEDLEETRKLIELLTRAFFTGDEDEMKNLADPSVRIIINGREVHGMDEWVRLLEEIRLEDVHSNLRDIRYFNGVVEVDGEFRLDGNINGRRFHHVFDLRLYVIKVNGRWRVKSWRNI” has a protease stability score of 1.83.
“DEEEKLRQWIFHLWIKILETGDEKLLEELADPHVLHRFDGVHAHGRERMSSWLRELIERLGVKVHELNSIHIYGDKARINFQVHVDGQRKEMTIHMLMVDGKIKSTQLDRREH” gave a protease stability score of 1.09.
Work on “DKEEEMVRHTATRFLHLLLTGDEEIITHLADPNMRIEVGDKESHGREHFADVIKEFSDHMRIKEWHIEVNEVVNGRILFDIHVDGIIGDKEDRIRFHLDIVVVNGKIKHVRIKIK” yielded a protease stability score of 1.15.
“DETERWAHLMLKLMQRYQETGDEDSLLELMDPEAKIDINGKEIHGREEWREHRYHHLRELGHTNIDVRVHLRRMHNVGDKANVRGELRININGKKLSVDVIIIILKIDGRWVIESLRLE” gave a protease stability score of 0.736.
“DEEEHSYEWAHKVSRHTTETGNEDLSRELADPNVRVIIGDKEYHGWKFMTHLLAHLRIKHIIIRSIRVQGNKLDLNEEVHGEIDGKDETFKLDLVILKVNGRWVIKSVRVE” gave a protease stability score of 0.612.
With “SEHHEEATEATKHFVHLMRTGDFDRLLELADPHVRVRINGKNLIGREDLDKLWKELGLTNVDVRIDDFSHQGDKVEIHTREHFNGRTVDVIVILEKINGQWVIKRREQR” the protease stability score was 0.4.
“DELEKAIHHILKELLEARLTGDWQMVIDRFDPHVLLRVGDKEFHGREIIRHLHEQFDHVEHVDLRLENHRYQGNKIHLDIKTTMDVRVGEKRVELRTESRIILLKVNGRWIIESVEIN” showed a protease stability score of 2.02.
With “DHEEEEMRDRFKVLMRALLTGDFEELIRQMDPDYRLDINGRELIGREEYRKHLEKQLKHWRWKRIDVKHVETQGDKLHARINVHGDIDGRDINTETDWHLEVIDGRVRSEKISIR” the protease stability score was 1.58.
For “DEEEEIFRHLFKLFVDATETGDEHILKELLDPHTRIHVNGQDFHGRENAIHFWRHMRIDEIRLKEIEVQGDKIHITGHVRGQIDGQQVRTDFELIMVKIDGRWKIHSEIYH”, the protease stability score was 2.
“DEEEEKLRELIRIFIEDWKTGDFDSLAHLLDPNARLDIHINGVHLHYHGREKILEFLWRWFERFKNARVELKRIRIVNGRSEIDSETTFNGRSSDMEIDIVIINGRVRSERFKVG” showed a protease stability score of 1.47.
In the case of “DEIERLFRELVNLIFELLRTGNFRKLEELLDPHTRLTIGDKYYHGRESVIEYLKHLWEQLGVDHMEFHVKRVDIQGEKVNADTEIRIKIGDKTYFRDTVLIFLKIDGRWEIRAWEEK”, the protease stability score is reported as 1.52.
Work on “DEEEEEVRKLAHIHLHWLKTGDEEFEKKYADPHTKFRFNGRSSHGMEDFAEWVREIRIHDVIIRRVRVVNGVNEIDMEVDFEFDGKRIRSQTQILLFIYDGRIKSTEFTIR” yielded a protease stability score of 0.805.
Work on “SEEEELMKKAMNTILESLKTGDFHTLENLVDPTARSDINGVILHGRELMHHEWERLLRELGVDVWEINEIHLRYVDGVVRIDIDGKVIIGDKSRTVHLRIIAHKIDGRWHIHSISFEVR” yielded a protease stability score of 1.83.
Work on “DELTDSREHALNLYIHKLETGDWNLHERFLDPNVRVDYDGVDLHGREIYRQWETERLEIAGIKHLELKRKSVQGEKIRIDGIEKFDGKEVKTHVIILKVNGKWILETVIFK” yielded a protease stability score of 0.171.
“DHTEHDARLVMEIWLRILLTGDWETLEKMLDPHVRLQINIGDKRHTHHGREDFLKRLYDLIRELGVDHWTLDEKRVQGNKTRARVTMYVGDKSYDVEIILVAVNGRIREVTIEIH” gave a protease stability score of 2.08.
With “HEEEEEIKEATRLFEEIHRTGDERESREMIDPNALFEVGNFKDHGWDSIHVLMRRVKNVKITLDDFKIQGDKVHLHITENFNGKRVHVTIIAVKINGVWFVHKIRYD” the protease stability score was 1.44.
“DEDFRDAKHMWELYLELIHTGDEERLRKLMDPNVRVEVGDKELHGRHHYIKWVREMRMRIEDVRIRTVRNINGVVHIHGELRGEYVYGDKRVHFETEVELVLLKVNGRWKIHEEHIH” showed a protease stability score of 1.75.
Sequence “SEEEHDTRNALKIIIRTLITGNEDERRKLLDPHVRLEFEGWHEHGRDAAHLLSFWYRERVDVLRDSKVEHVELQGDKIRMDIILISEYNGVHTSTHVHIVVEKFNGRWHMRSIFFL” has a protease stability score of 1.16.
Sequence “DEDEEQTRRAWKINLEQWLTGDEELLDRNLDPDVRNDVNGVRLHGMELLTEMLHRFIEKLKGATIRLKDFRLRFYGNKIEVRVETIVHVNGVQIHVELIFIATKVDGRWRIHEISHHNR” has a protease stability score of 0.868.
“DEDQKETEEAIKELEKLSKTGNEHDFLRYFDPNMRVEIGDKEIWGRERALEIFHELGVKHIEVKRVDVQGDKIRMDTLLRVNGQELHTQVVALKINGQWILESYRVE” gave a protease stability score of 1.09.
Sequence “DEEEELVRLATEHSLELMRTGDWSHLHKLMDPHALLSVNGREVHGRENAVRLIITILEDLGVKHFHLEHVEVIDGRVNIDGRLHQGDKKLNNEIWLVKINGRWRLKSIHIELK” has a protease stability score of 1.17.
Sequence “SEHELIAHEIVERWVHDVNTGDWENLHRLFDPNTKIDFNGVHLHGRRSLEEWIHEHLRRADHFEVRIKDIRVQGEKSVANTHVNVNINGQEYRRDTSLILIIVDGKVKTMTIRVH” has a protease stability score of 1.5.
“SEDEEYVKELADLFKELWETGDEETFMKLVDPNVRSDVNGKRVHGREEIRRVWHEVIRTLGIKYSHLRDMRIIGNKVVLDIELRVGDKRIELKVILIIVNGRMHYVELRLNEI” gave a protease stability score of 1.89.
“DEDEEDARIAWEILVRVWKTGDEEELMKMADPNTRLEINGREFHGREHYLHMSRELRVERVDVRRLEVFDGKVHLEGESHMEVNGKRRTHKVVHIMRKIDGRWHIEYFIVH” gave a protease stability score of 1.31.
For “DEDHELAEDAIRWMSKIMLTGNEEHLHEMFDPDARIRFEGRSSHGWEEMIHFIRHIRIYIKESRIRDVRIQGDKIDVIGEVKIVIRIGDKIHEDTRDVYILVVKVDGRWTVRSFELV”, the protease stability score was 0.712.
For “DTVTEMDRHIFEHLLHLWKTGDWKRMTELFDPHARSVFNGRELHGRKSMQEAIEIIVRRADHIELHIRSLDVVDGQIDLDGELILIVGDKKIVHETHIHIHVYNGQVTELSFQIV”, the protease stability score was 0.585.
With “DEDRESEEKAIKTWWHMVETGDEKLFKKLADPDTKMVINGVEKHGMETVHEFLNRVDHIRQFDIEDHRFYNGRLELHIRVDVEFNGRRHETERRVIASKVNGRWLLKEVIVH” the protease stability score was 0.689.
For “DEWLEMAMRIIFRYLLLLATGDEDIVNHYMDPNVKIDVNGREEHGRERALEQLEEIRRQYPGLTLTHLHIEDLKVVGNYVRVDGYVEGRIDGRRIELKTEFIILKINGRWRMHSVKEH”, the protease stability score was 1.74.
With “DEDREFAERVMKLLLHSLITGDFRRIHELADPHMRLHQGDFNIIGWDTIYEIMFRLGFRLDDFRIEHMDVVDGRVFLQGRSDGTINGRRTRTNVNIIIEKIDGRWYLRENEVR” the protease stability score was 1.08.
In the case of “DEHTDAVETTWKRLLEDERTGNEDSLERLADPNYRVIINGKHYHGMEHSLHILSEWRITDHEIKDVEIQGEKAHIDGRFNGIIDGKHLNIHVLILIEKVDGRWIIKSVIFK”, the protease stability score is reported as -0.096.
Sequence “DEEEELAIHFWRLFLHLIITGDWERLTELMDPNVRIDINGKEIHGRELASEHLRKLMEHARFRDHHLEDVKIYDGVVEMHGRIDGRFDGKDVDTRMIVYTVKVNGKWLLKRVVHL” has a protease stability score of 2.32.
“SEDERRFREALRIWFQLVRTGDEEELKHFFDPNVRIHIGDKTFHGMELVLRQIVEEAREIRVRSVTIHELDRQGEWIHMDVRIDEEINGRRIHHSVEIIALKINGKWFFHSIIIR” showed a protease stability score of 1.4.
Work on “SEEEEAARHVLEEWLRSIRTGDEEFTERLLDPEARFHVNGVEIIGREHIIRRLREIRIHDIKMDVREIRIVDGRISIDVTYRIDGEVNGVKVDTSHEVRLVFVKINGRWLNRKEEVR” yielded a protease stability score of 1.66.
For “DTEEKLARDIVRIVSELIFTGNEQDLKRLHDPRVRLEVLFENHYLEFHGWEDYLEWLEEWRNHMRMKEIHVHTLQVYGNKARDEVHTVVHIGDKRIETRMHFIVVVINGRIKYISVHIE”, the protease stability score was 1.9.
Sequence “DEDLKLMLTLTHLWLHAVATGDEDLQTKLADPDVRFIFNGRIIHGMDEWRRFLKELRIKIEDTDHKDSDLYGEKLHIDGHIVIRIHVGEKNERIDTRVHIHVLVINGKLKSVKIETR” has a protease stability score of 2.13.
For “DEEEHIARHIFEHFITWLLTGDEEVLKDLADPNVRLDINGRHVVGREEFRRWLKEDLEHLRIHDMDLRRVRVQGNKMDLDVQVDGIVNGQHRHHNTRLIFEKVDGRWLLRSIIVK”, the protease stability score was 2.16.
Sequence “DESEKSAFRFFEEMTKVLSTGDEETFLKMLDPNTRLEVGDKERHGREDFIRLMRHLWEVLGADHVHIHVKDIKVVNGRADIDTDLIIYVNGKTIHRDTQIIVLKIDGRWVLTSMEVE” has a protease stability score of 2.02.
“DEEEEQARHMVMLFLRYILTGDEKHFQTLADPDVRTDVNGKEHHGREEATRTLRLYIELMGADHIQLKDWEIEVQGEFVRLRLHVQVDVGDKHLRTDLHFEIKKVNGQWVVHQVVIKTL” showed a protease stability score of 2.19.
Sequence “DDRERLTKLMSDDFIFSMLTGDEHFMHELIDPHARFLFNGQVHHGWKTMEFWREHLGIDNIHLQIRISDLEIQGDKATVRIDGEVKQGDKSFRTRFIIKVDKIDGRWVIHELRIIVL” has a protease stability score of 1.07.
For “SEIEKDAKDALKWFVDTTRTGDEDLWLRLLDPHVRVIIGDKEYHGREESEKLIRHLSDLFGVDKVEVILNLERIHIQGNKIDVKGKLEVRQGNYTDDREIEMVMIKVNGRWFIKYEVIK”, the protease stability score was 1.18.
“NEIEELVRESLELLAHALETGDEKLMTELADPDTRLIVNGRHLWGWELHLMFLTRFDHIETRIRLTEMEVQGEKVNSRGDMDVIVNVDGQRDRKRHEFIIISTKINGRWRLKSVILR” showed a protease stability score of 1.57.
“TEDEEYVKHIIDLFWHVKKTGDESHMKELADPNVRIEVDGRDIIGMEDVLKWEKDHREKIKGIRLNVHQWRIIGNKVESDLIVNINGVTIEFHVTVIIVNGKLHSLRVEFE” showed a protease stability score of 1.21.
In the case of “DEEKEDAYRNAELWIKSINTGDEDVLTDLLDPHARIDIGDKKLHGMESFTKLYRDLGFRIKDFHLKDIRIYGEKIEIHGIIHFEQGDKEHNEDTTIILLKVNGKWIIKRLRVN”, the protease stability score is reported as 1.5.
In the case of “REEEKFAIHLVRRVVEYLLTGDEDSLKRLADPNTRIHINGVDRHGMEESYKWWKSEIDHLRHHIVITRMRFIDGVIEVDIRLHSDFDGVRFSWNVHLILLVVDGRIKTDKMIVE”, the protease stability score is reported as 1.26.
For “DEEEKISKEATDNFIREFETGNEEDLMKNMDPNARLIQGDKHNHGRDEASRFLVELLRDLGFKHIRLTHVRIIDGRVWVHSDLHFNGVEFKQDVIFTKINGKWTLKSLTIK”, the protease stability score was 1.13.
“SEEDEETEHITRLIFRAMVTGDWKELLDNLDPHTRVDINGRDQHGWEVMREWVERIKNVQLRIRRISVQGDKTRLDTEFRQGDKSVHVEVRITIVDGVVQHIEFKDR” gave a protease stability score of 1.6.
